Assay results published in publication PMC9477280 (PLoS Pathogens, 2022).

Columns and labels:
EPEC flagella = EPEC flagella (Escherichia coli O127:H6 E2348/69 (EPEC), UniProt B7USU2); assay: ELISA; dilution ELISA; purified antigen coated directly on Nunc Maxisorp wells, typically 1 μg/mL in PBS overnight at 4°C, blocked with 4% milk in PBS 0.1% Tween; thioredoxin/VHH/E-tag from 125 nM in 1:5 serial dilutions, 1 h 37°C; detected with HRP anti-E-tag; EC50 estimates (apparent affinity); Trace = EC50 >125 nM, poor but detectable; conditions: both partners purified
[1] = target: T1, MC1061 expressing EHEC intimin (Escherichia coli O157:H7 EDL933 (EHEC), UniProt P43261); assay: ELISA; dilution ELISA with intimin displayed on the surface of E. coli MC1061 as antigen; soluble thioredoxin/VHH/E-tag; EC50 estimates (apparent affinity); conditions: one partner purified
T1 construct: also called E. coli 1061/pInt (EHEC); EHEC intimin expressed on the surface of strain MC1061

MC1061 /EPEC intimin = target: T2, MC1061 /EPEC intimin (Escherichia coli O127:H6, JPN15 …, UniProt P19809); assay: as above; conditions: one partner purified
T2 construct: also called E. coli 1061/pInt (EPEC); EPEC intimin expressed on the surface of strain MC1061

C. rodentium EspA = C. rodentium EspA (Citrobacter rodentium ICC168 (parent of …, UniProt D2TKE3)); assay: ELISA; dilution ELISA; purified antigen coated directly on Nunc Maxisorp wells, typically 1 μg/mL in PBS overnight at 4°C, blocked with 4% milk in PBS 0.1% Tween; thioredoxin/VHH/E-tag from 125 nM in 1:5 serial dilutions, 1 h 37°C; detected with HRP anti-E-tag; EC50 estimates (apparent affinity); Trace = EC50 >125 nM, poor but detectable; conditions: both partners purified
EPEC FliC = target: T3, EPEC FliC (Escherichia coli EPEC, likely O127:H6 …, UniProt B7USU2); assay: as above; conditions: both partners purified
T3 construct: also called EPEC rFliC; recombinant FliC

C. rodentium intimin = C. rodentium intimin (Citrobacter rodentium DBS100, UniProt Q07591); assay: ELISA; EC50 told in footnote g of Table 1; form of the C. rodentium intimin antigen not stated
EPEC intimin = target: T4, EPEC intimin (Escherichia coli O127:H6 E2348/69 (EPEC), UniProt P19809); assay: ELISA; dilution ELISA; purified antigen coated directly on Nunc Maxisorp wells, typically 1 μg/mL in PBS overnight at 4°C, blocked with 4% milk in PBS 0.1% Tween; thioredoxin/VHH/E-tag from 125 nM in 1:5 serial dilutions, 1 h 37°C; detected with HRP anti-E-tag; EC50 estimates (apparent affinity); Trace = EC50 >125 nM, poor but detectable; conditions: both partners purified
T4 construct: also called recombinant intimin (EPEC)

EHEC intimin = target: T5, EHEC intimin (Escherichia coli O157:H7 EDL933 (EHEC), UniProt P43261); assay: as above; conditions: both partners purified
T5 construct: also called recombinant intimin (EHEC)

B1: JXE-B1 (VHH)
VHH: TGGGLVQAGDSLRLSCAASSGRNFSNYATGWFRQAPGKEQEFVASISRSGRSTYYADSAKGRFTISRDNARNTVYLQMNSLKPEDTADYYCAAHETQWPNGLGWVRGFYDLWGQGTQVTVSS
notes: also called JXK-1 (vector name); not shown: thioredoxin, N-terminal, kept; E-tag, C-terminal, kept
EC50 (EPEC flagella): 0.1 nM

B2: JWS-H4 (VHH)
VHH: SGGGLVQAGGSLRLSCTTSASIFSGYRMGWFRQAPGKQREFVASIADGQNTPYADSVMGRFTISRDNAKNTVYLQMSNLKPEDTAIYYCKSWGYTDWGQGTQVTVSS
notes: also called αInt-12; JWZ-5 (vector name)
binding result [1]: binds | EC50 (MC1061 /EPEC intimin): 10 nM

B3: JWU-F3 (VHH)
VHH: SGGGLVQPGGSLRLTCVSSLSDFRLTNMAWYRQTPGSERDVVAGISPNGITSYHASVQDRFNISRDNARKTLFLQMNSLKPEDSGVYYCNIRWGSLLPWGQGTQVTVSP
notes: also called JXA-1 (vector name); not shown: thioredoxin, N-terminal, kept; E-tag, C-terminal, kept
EC50 (EPEC flagella): 0.2 nM

B4: JWU-H4 (VHH)
VHH: TGGGSVQPGGSLRLSCAPSGFSLAYYGVGWFRQAPGKEREALACISRFGDDTYYADSAKGRFTVSRDNAKNTVYLEMNNLKPEDTGVYYCAAGWVVVTDESCGSGDAYNYWGRGTQVTVSS
notes: also called JXA-5 (vector name); not shown: thioredoxin, N-terminal, kept; E-tag, C-terminal, kept
EC50 (EPEC flagella): 10 nM

B5: JXF-D7 (VHH)
VHH: SGGGLVQTGGSLRLSCSASGFALEYYAVGWFRQAPGKEREGVSCFSGSDGSKFHAQFVKGRFTISLDKEKNTVDLTMNNLKPEDTAVYYCAVAGPSDHQCDLGMTWYHRWGQGTQVTVSS
notes: also called αEspA-1; JXM-6 (vector name); not shown: thioredoxin, N-terminal, kept; E-tag, C-terminal, kept
EC50 (C. rodentium EspA): 0.7 nM

B6: JYB-B1 (VHH)
VHH: TGGGLVQAGGSLRLSCAISGFSLGDYAIGWFRQAPEKEREGVAFSGSLGNTYYPDSMKGRFTISRDDAENAVYLEMKNLKPEDTAVYRCTSGGTFDAVVLGLSTYWGQGTQVTVSS
notes: also called αEspA-5; JYE-1 (vector name); not shown: thioredoxin, N-terminal, kept; E-tag, C-terminal, kept
EC50 (C. rodentium EspA): 0.3 nM

B7: JXF-D8 (VHH)
VHH: SGGALVQPGGSLRLSCAASGINLDYYAIGWFRQAPGKERKGVSCISHVDDDRIYYSDSVKGRFTISRDNAKNTVYLQMNSLEPEDTAVYYCATAGPSDYPCDLELWTYRRWGQGTQVTVSS
notes: also called αEspA-2; JXM-8 (vector name); not shown: thioredoxin, N-terminal, kept; E-tag, C-terminal, kept
EC50 (C. rodentium EspA): 0.7 nM

B8: JYB-H6 (VHH)
VHH: TGGGLVQPGGSLRLSCVASGFILDAYTIGWFRQAPGKEREGVASINGSGFSTNYADSVKGRFTISRDNAKNTVWLQMNSLKPEDTAVYYCAAALGLLTPRLESTPFDDWGQGTQVTVSS
notes: also called αEspA-9; JYE-5 (vector name); not shown: thioredoxin, N-terminal, kept; E-tag, C-terminal, kept
EC50 (C. rodentium EspA): 0.3 nM

B9: JUV-C4 (VHH)
VHH: TGGGLVQAGGSLTLSCVASGRAVSSFAMGWFRQIPGREQRDFVAFIGDYGLTTYYANSVKGRFTISRSNAENTLYLQMNSLEFEDAAVYFCAARDAYRSGTTNPSAYDYWGQGTQVTVSS
notes: also called αFla-2; JVE-4 (vector name); not shown: thioredoxin, N-terminal, kept; E-tag, C-terminal, kept
EC50 (EPEC flagella): 1 nM | EC50 (EPEC FliC): 0.3 nM

B10: JYB-D1 (VHH)
VHH: TGGGLVQAGGSLRLSCAASGNTFSYTAMAWFRQAPGKQRELVARISSGRGPTKYADSVKGRFTISRDNTLNTVWLQMNDLKPEDTAVYFCNTLKYSGESSYIAGDSWGQGTQVTVSS
notes: also called αEspA-7; JYE-3 (vector name); not shown: thioredoxin, N-terminal, kept; E-tag, C-terminal, kept
EC50 (C. rodentium EspA): 3 nM

B11: JXF-H9 (VHH)
VHH: SGGGLAQTGGSLRLSCAASGFRLEYYAVGWFRQAPGKEREGVSCLSGSDGSTYNAEFAKGRFTISRDDAKNTVYLLMNSLKPEDTAVYYCAVAGPSDYQCDLGTRWYHRWGQGTVVTVSA
notes: also called αEspA-3; JXM-12 (vector name); not shown: thioredoxin, N-terminal, kept; E-tag, C-terminal, kept
EC50 (C. rodentium EspA): 0.7 nM

B12: JWU-D8 (VHH)
VHH: TGGGLVQPGGSLRLSCAASGFYFSGYWMHWVRQVQGQGLKWVSGINIDDTKSSYTDSVKGRFTISRDNTKNTLYLQMDSLQPEDTGVYYCARDRRAGQISGGYDPDYRGQGTQVTVSS
notes: also called αInt-14; JWZ-9 (vector name)
binding result [1]: binds | EC50 (MC1061 /EPEC intimin): 0.5 nM

B13: JXN-E2 (VHH)
VHH: TGGLVPPGGSLQLSCTSSGFFLDYLGVAWFRQAPGNEREGVSCIDYTGDNIAYASSMKGRATISRDKDANTVTLEMNGLKPEDTAVYYCAAHRSATTYADGKYRCPLENEYDYWGQGIQVTVSS
notes: also called JXS-2 (vector name); not shown: thioredoxin, N-terminal, kept; E-tag, C-terminal, kept
EC50 (C. rodentium intimin): ~0.5 nM | binding result (MC1061 /EPEC intimin): no binding (tested: 125 nM (highest VHH concentration)) | binding result (EPEC intimin): no binding (tested: 125 nM (highest VHH concentration)) | binding result (EHEC intimin): no binding (tested: 125 nM (highest VHH concentration))

B14: JYB-B8 (VHH)
VHH: TGGGLVQPGGSLRLSCAASGFTFSTYWMYWVRQAPGKGLEWVSTIDTGGSDTYYADSVKGRFTISRDNVKNTLYLQMDNLKPEDTALYYCGSSRDIVIVTTLRDFDYWGQGTQVTVFS
notes: also called αEspA-6; JYE-2 (vector name); not shown: thioredoxin, N-terminal, kept; E-tag, C-terminal, kept
EC50 (C. rodentium EspA): 0.7 nM

B15: JXF-C4 (VHH)
VHH: SGGGLVQAGGSLRLSCVAYGRTANTFKEYAMGWFRHNPGEDHEFVGGISQNGDEAYFDDSVKGRFTPSRDNAKNTMYLQMNSLRPEDTAAYYCVAQRSSERLVGDMYSAMDSWGKGTLVTVST
notes: also called αEspA-4; JXM-15 (vector name); not shown: thioredoxin, N-terminal, kept; E-tag, C-terminal, kept
EC50 (C. rodentium EspA): 0.7 nM

B16: JYB-H4 (VHH)
VHH: SGGGLVQPGGSLRLSCAASGVTLEYYAIGWFRQVPGKEREGVSCISTSGAGTNYADSVKGRFTISKDNAKNTVYLQMNSLKPEDTAVYYCAARDFTEVPIGGCEWEYDYWGQGTQVTVSS
notes: also called αEspA-8; JYE-4 (vector name); not shown: thioredoxin, N-terminal, kept; E-tag, C-terminal, kept
EC50 (C. rodentium EspA): 0.5 nM

B17: JWT-C1 (VHH)
VHH: SGGLVQPGGSLRLSCAASGFTLANSAIGWFRQAPGKGREAVSCISTSAGTTNYASSVKGRFTTARDNAKNMAYLQMDNLKSGDTGVYECAAGWSIDCSGYILPAADVWGQGTQVTVSS
notes: also called αInt-13; JWZ-7 (vector name)
EC50 (EHEC intimin): 0.5 nM

B18: JWU-G8 (VHH)
VHH: SGGGLVQPGGSLRLSCATSGFYFAGYWMHWVRQVPGQGLEWVSGIDLGSTMLNYRDSVKGRFSISRDNAKNTVYLQMHSLKPEDTALYFCARDRRAGATSGGYDPDVRGQGTQVTVSS
notes: also called αInt-17; JWZ-15 (vector name)
binding result [1]: binds | EC50 (MC1061 /EPEC intimin): 0.5 nM | binding result (EHEC intimin): no binding (tested: 125 nM (highest VHH concentration))
